From article doi:10.1101/767376, “Strategies to improve scFvs as crystallization chaperones suggested by analysis of a complex with the human PHD-bromodomain SP140” (bioRxiv, 2019)

Target: T1, SP140 PHD-bromodomain (construct SP140A-c055) (Homo sapiens, UniProt Q13342)
T1 construct: SP140, human, nuclear leukocyte-specific protein, amino acids 688-862 (PHD and bromodomain); Biotinylated recombinant SP140 was the target in the phage selection; Details are in supplementary methods S1; source: recombinant, purified
Assay: SPR; format and conditions in Supplementary Method S3 and Figure S1 (not shown)

T1 sequence (Q13342 688-862): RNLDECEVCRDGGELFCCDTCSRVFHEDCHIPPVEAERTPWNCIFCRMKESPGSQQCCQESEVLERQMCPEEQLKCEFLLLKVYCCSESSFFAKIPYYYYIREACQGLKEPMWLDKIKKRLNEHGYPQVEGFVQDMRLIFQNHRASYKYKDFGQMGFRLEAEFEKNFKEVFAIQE

B1: G-SP140-8 scFv (construct YYSP140A-c009) (scFv, V domains shown)
VH: EVQLLESGGGLVQPGGSLRLSCAASGFTFYGSGMGWVRQAPGKGLEWVSSIYSGSGSTYYADSVKGRFTISRDNSKNTLYLQMNSLRAEDTAVYYCARTSIYYYYMDYWGQGTLVTVSS
VL: DIQMTQSPSSLSASVGDRVTITCRASQSISSYLNWYQQKPGKAPKLLIYAASSLQSGVPSRFSGSGSGTDFTLTISSLQPEDFATYYCQQSSSLFTFGQGTKLEIK
notes: scFv (VH and VL joined by a linker) selected by phage display from the human synthetic library SciLifeLib; see Supplementary Method S3; not shown: MBP, N-terminal, cleaved; His6, N-terminal, cleaved
  Kd: ~6 nM
